{"source": "patent CN111138531A", "about": "(INST MILITARY MEDICINE ACADEMY MILITARY SCIENCES PLA, dated 2020)", "binders": {"B1": {"name": "单克隆抗体8F9 (antibody, V domains shown)", "VH": "EVQLLESGGGLVQPGGSLRLSCAASEFTFSNYAMNWVRQAPGKGLEWVSGISTRGSSTYYADSVKGRFTISRDNSKNTLYLQMNSLRVEDTAVYYCAKDRLSVFGVVLISSDYYGMDVWGQGTTVTVSS", "VL": "AIRMTQSPFSLSASVGDRVTITCRASRTISSYLNWYQKKPGKAPKLLIYAASSLQSGVPSRFSGSGSGTDFTLTISSLQPEDFATYYCQQSYSTPMTFGQGTRLEIKT"}}, "biological_target": "GPdM (EBOV, UniProt Q05320 33-632)", "assay": "ELISA on coated truncated GP, method as example 2", "data": [{"binder": "B1", "values": [{"measurement": "EC50", "result": 6.2, "unit": "ng/mL"}]}]}
